We go through one substance from article PMC6168863.

The test addresses SsaL-3Flag (Salmonella enterica serovar Typhimurium (strain 12023)). Briefly: co-IP; Bacteria grown 6 h in MgM-MES at pH 5.0; lysate in PBS, 1 mM PMSF, 0.5% Triton X-100; SsaL-3Flag precipitated with anti-Flag M2 affinity agarose for 3 h at 4°C and eluted with 3Flag peptide; SsaV detected with anti-His antibody. Strains: wt background, ssaV^V632D, ΔssaP (with or without pssaP), and ΔssaU expressing SsaU^N262A.

Chain of SsaV-6×His (P74856 whole entry): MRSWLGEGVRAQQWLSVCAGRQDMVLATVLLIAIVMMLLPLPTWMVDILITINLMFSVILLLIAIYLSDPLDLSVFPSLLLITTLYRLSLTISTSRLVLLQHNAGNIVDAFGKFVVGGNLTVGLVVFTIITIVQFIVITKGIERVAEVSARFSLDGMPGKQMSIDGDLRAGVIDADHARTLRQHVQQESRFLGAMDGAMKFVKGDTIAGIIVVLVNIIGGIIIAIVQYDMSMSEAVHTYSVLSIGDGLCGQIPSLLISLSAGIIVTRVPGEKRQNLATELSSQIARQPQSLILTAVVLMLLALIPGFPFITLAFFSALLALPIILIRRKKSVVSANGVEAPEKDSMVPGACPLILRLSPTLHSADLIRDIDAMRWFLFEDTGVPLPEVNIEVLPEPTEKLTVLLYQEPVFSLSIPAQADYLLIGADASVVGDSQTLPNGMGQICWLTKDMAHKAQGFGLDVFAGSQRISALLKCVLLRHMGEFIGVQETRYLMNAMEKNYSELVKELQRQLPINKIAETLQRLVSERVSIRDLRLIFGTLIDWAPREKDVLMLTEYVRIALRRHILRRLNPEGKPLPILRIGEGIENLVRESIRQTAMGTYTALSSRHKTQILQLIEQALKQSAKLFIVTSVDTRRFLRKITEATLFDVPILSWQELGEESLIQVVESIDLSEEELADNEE

“SsaV-6×His (from UniProt P74856 1-681) (natural protein)” had a percent decrease of SsaV-6×His co-immunoprecipitated with SsaL-3Flag in the absence of SsaP (ΔssaP) of 43.6% and a percent decrease of SsaV-6×His co-immunoprecipitated with SsaL-3Flag in the absence of normally cleaved SsaU (ΔssaU expressing SsaU^N262A) of 46.2%.
